Where a chain is given by its changes, count along the chain named.
Columns and labels:
[1] = molecular target: T1, C1 WT (ZF10-13) (mouse, UniProt A2A5K6 845-1337); assay: quantitative EMSA
T1 sequence: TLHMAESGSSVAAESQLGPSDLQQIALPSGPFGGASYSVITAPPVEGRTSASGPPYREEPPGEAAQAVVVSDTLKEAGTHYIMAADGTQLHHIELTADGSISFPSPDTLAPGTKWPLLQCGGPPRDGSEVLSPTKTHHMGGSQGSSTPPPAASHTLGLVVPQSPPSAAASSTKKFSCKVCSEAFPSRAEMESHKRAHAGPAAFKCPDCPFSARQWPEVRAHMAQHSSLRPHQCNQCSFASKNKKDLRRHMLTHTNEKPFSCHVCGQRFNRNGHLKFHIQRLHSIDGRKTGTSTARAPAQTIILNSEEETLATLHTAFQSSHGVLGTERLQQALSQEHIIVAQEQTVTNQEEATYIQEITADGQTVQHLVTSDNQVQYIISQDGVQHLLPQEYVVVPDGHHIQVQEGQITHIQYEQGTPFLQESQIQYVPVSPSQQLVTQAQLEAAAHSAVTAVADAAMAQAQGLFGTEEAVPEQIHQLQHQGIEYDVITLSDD

[2] = molecular target: T2, C1 R1092W (ZF10-13) (mouse, UniProt A2A5K6 845-1337, R1092W); assay: quantitative EMSA
T2 sequence: T1 sequence with R248W

B1: A2 (dsDNA)
DNA 1: AGTCCGACTCAGGACCCCGACCAAGCTG
DNA 2: CAGCTTGGTCGGGGTCCTGAGTCGGACT
Which results are given for B1?
Kd [1]: 73.4 ± 7.1 nM; Kd [2]: 1410 ± 117 nM

From article PMC4949324
